# Assay results reported in patent US20180296525A1, “TREATMENT OF AGE-RELATED MACULAR DEGENERATION AND OTHER EYE DISEASES WITH ONE OR MORE THERAPEUTIC AGENTS” (MacRegen, Inc., priority 2017, published 2018).
# Legend:
# [1] = target: T1, complement factor D (CFD) (Homo sapiens, UniProt P00746); details: patients, monthly intravitreal 10 mg in one eye for 18 months, injected eye, compared to placebo; cited from earlier work
# T1 construct: host or cells: Endogenous CFD in the eyes of AMD patients
# [2] = estimated; cited from earlier work
# [3] = test system: neutral lipids in and on the Bruch's membrane; test: Oil red O staining of neutral lipids in and on the Bruch's membrane, geriatric macaques with age-related maculopathy; assay type: in vivo, Macaca fascicularis; details: injected eyes after 6 monthly intravitreal injections (total 625 μg), compared to eyes injected with placebo
# Description: (§1) The macaque study was conducted according to accepted guidelines. […] One eye per animal received 6 monthly injections of the same escalating dosages of L-4F or scrambled L-4F (total of 625 μg) in a 50 μL volume. The second eye per animal was not injected and was just observed.
# Clinical laboratory tests including serology, hemograms and liver enzymes were conducted, and ophthalmic examinations were also performed, including fundus photographs, optical coherence tomography (OCT), intraocular pressure testing and blood sampling. After 7 months, all animals were sacrificed and eyes were immediately prepared for histology. Histochemistry was performed with oil red O for neutral lipids and filipin for esterified cholesterol. […]
# For staining with oil red O (ORO), specimens were treated with a 0.3% oil red O (Sigma-Aldrich Biochemie GmbH, Hamburg, Germany) solution (in 99% isopropanol) for 30 min at room temperature (RT), followed by immersion in a 60% isopropanol solution for 12 min. […] Image analysis was performed by grading the intensity of ORO staining (red color) of the Bruch's membrane (BrM) with scores ranging from 0 to 4, according to a qualitative evaluation assessed in four different regions in two separate slices from each eye (a total of 8 different regions from each eye). […]
# [4] = Tolerability of intravitreal injections, macaque study; assay type: in vivo, Macaca fascicularis; details: 6 monthly intravitreal injections, all macaques; no significant adverse event or side effect
# Description: as §1
# Clinical laboratory tests including serology, hemograms and liver enzymes were conducted, and ophthalmic examinations were also performed, including fundus photographs, optical coherence tomography (OCT), intraocular pressure testing and blood sampling. After 7 months, all animals were sacrificed and eyes were immediately prepared for histology. Histochemistry was performed with oil red O for neutral lipids and filipin for esterified cholesterol. Immunohistochemistry was performed against complement factor D (CFD) and the membrane attack complex (MAC, C5b-9), both being markers of activation of the alternative complement pathway.
# Circulating hsCRP, which is mainly produced in the liver, is a non-specific marker for systemic inflammation.
# [5] = without encapsulated cell technology; cited from earlier work
# T1 sequence (P00746 26-253): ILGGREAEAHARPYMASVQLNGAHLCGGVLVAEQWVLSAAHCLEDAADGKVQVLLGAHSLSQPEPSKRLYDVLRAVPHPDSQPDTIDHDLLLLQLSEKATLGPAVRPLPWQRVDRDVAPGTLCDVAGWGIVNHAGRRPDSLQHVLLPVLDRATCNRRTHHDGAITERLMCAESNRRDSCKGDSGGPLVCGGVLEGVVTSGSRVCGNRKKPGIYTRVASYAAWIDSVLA
molecule,measurement,setting,value
lampalizumab: antigen-binding fragment (Fab) of a humanized monoclonal antibody targeting complement factor D (CFD),"reduction in the rate of GA enlargement, and hence the area of GA",[1],about 20%
bevacizumab: anti-VEGF antibody,intravitreal half-life,[2],about 9.8 days
aflibercept: soluble fusion protein containing extracellular domains of VEGFRs; anti-VEGF agent,intravitreal half-life,[2],about 9.0 days
"Ac-DWFKAFYDKVAEKFKEAF-NH2 [L-4F, Ac-DWFKAFYDKVAEKFKEAF-NH2 acetate salt]",reduction of lipid deposits from the BrM (oil red O staining),[3],about 56%
same,tolerability,[4],well tolerated
ranibizumab: anti-VEGF antibody fragment,intravitreal half-life,[2],about 7.1 days
"CNTF: ciliary neurotrophic factor, an endogenous neuroprotector (protein, UniProt P26441 1-200, looked up) Ciliary neurotrophic factor: MAFTEHSPLTPHRRDLCSRSIWLARKIRSDLTALTESYVKHQGLNKNINLDSADGMPVASTDQWSELTEAERLQENLQAYRTFHVLLARLLEDQQVHFTPTEGDFHQAIHTLLLQVAAFAYQIEELMILLEYKIPRNEADGMPINVGDGGLFEKKLWGLKVLQELSQWTVRSIHDLRFISSHQTGIPARGSHYIANNKKM",half-life of CNTF,[5],1 to 3 min
